Values joined by “and” are separate entries in the source; they are usually repeats but may differ in a detail not shown here. Equal values may be shown once.
T1: N1 peptide (AA25-39 of hGPC3) (human, UniProt P51654 25-39)
T1 construct: range 25-39
T1 peptide (looked up): QPPPPPPDATCHQVR

T2: N2 (30-68) (human, UniProt P51654)
T2 construct: overlapping synthetic peptide
T2 peptide (looked up): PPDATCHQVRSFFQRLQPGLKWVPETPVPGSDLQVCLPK

T3: N4 (88-126) (human, UniProt P51654)
T3 construct: overlapping synthetic peptide
T3 peptide (looked up): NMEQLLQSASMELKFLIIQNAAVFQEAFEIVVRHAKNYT

T4: N3 (59-97) (human, UniProt P51654)
T4 construct: overlapping synthetic peptide
T4 peptide (looked up): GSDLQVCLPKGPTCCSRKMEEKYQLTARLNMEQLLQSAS


Columns and labels:
[1] = target: T1, N1 peptide (AA25-39 of hGPC3); assay: ELISA on plate-coated synthetic peptide, anti-human IgG-HRP
Procedure: (§1) 96-well Flat-Bottom Immuno Plates (from Thermo Fisher) were coated with 4 ug of PBS-diluted peptides, overnight, at […]. 1 ug of rhGPC3 (from Creative Biomart) was used as positive control. The next day, peptides were discarded and plates were blocked with 100 μl of 5% non-fat milk in PBS. Then, the plates were washed with 300 μl/well of PBST (0.1% Tween20). Next, incubation with 100 uL/well of different antibody dilutions. This was followed by four washes with PBST. Then, incubation with 100 uL/well of anti-human IgG-HRP (From KPL) (1:2000 dilution). This was followed by four washes with PBST. Next, 100 uL/well of TMB (from Biolengend), incubation for 30 minutes. Then, 100 uL/well of 2N H2SO4. Lastly, OD450 nm was detected in an xMark™ Microplate Spectrophotometer (from BIO-RAD). If not indicated otherwise, incubations were performed for 1 hour at RT, and antibodies were diluted in 2% non-fat milk in PBS.

[2] = target: T5, soluble hGPC3 protein (recombinant human glypican 3) (human, UniProt P51654 25-560, limits assumed); assay: BLI, 1:1 global fit; kon Error 4.12E+02, R^2 0.9939
T5 construct: The construct used in ELISA and BLI and as FITC-labelled protein is not further defined; also called rhGPC3; FITC-labeled hGPC3
Procedure: (§2) Kinetics experiments were performed using the ForteBio Octet Red96 platform. All data were collected at 25° C. with orbital shaking at 1,000 rpm in 200 μL in 96-well black flat bottom plates (Greiner Bio-one). Anti-hIgG Fc Capture Sensor (ForteBio) were equilibrated for 10 min in 1×kinetics buffer prior to loading with 5 μg/mL of mAbs for 2 min. After the loading step, a 30 s baseline in 1×kinetics buffer was established before association with a range of concentrations of GPC3 for 2 min. Following mAbs association with GP, there was a 10-minute of dissociation step in kinetic buffer. For all experiments, two reference sensors without association to mAbs were used to account for nonspecific binding of analyte to the sensor and the system drift. All data were fit globally to a 1:1 Langmuir binding model using data analysis software 9.0 (ForteBio).

[3] = target: T5, soluble hGPC3 protein (recombinant …); assay: BLI, 1:1 global fit; kdis(1/s); kdis Error 3.37E-06, R^2 0.9939
Procedure: as §2

[4] = target: T6, hGPC3 on the surface of HCC tumor cells (HepG2; hGPC3low Huh7) (human, UniProt P51654 25-554); assay: immunofluorescent staining of HepG2 cells at different mAb concentrations, percent positive cells; hGPC3 on HepG2 cells
T6 construct: whole, on cells; GPI-anchored; also called hGPC3 on HepG2 cells; hGPC3 molecules on the tumor cell surface
Excerpt: FIG. 3A is an illustration showing the schematic structure of the recombinant mAbs. SP: signal peptide of human IgG; VL: variable region of light chain; VH: variable region of heavy chain; CL: constant region of human IgG light chain; CH: constant region of human IgG heavy chain. FIG. 3B is gel showing PAGE analysis of purified recombinant mAbs under reduced and non-reduced condition. mAbs were purified from the 293 cells after co-transfection of the L and H chain expressing plasmids. Gel was stained with SimplyBlue SafeStain, FIG. 3C is a graph showing the EC50 of recombinant mAbs by ELISA. FIG. 3D is a panel of graphs showing the Kd value of each mAbs was measured by BLI. Each experiment was repeated at least 3 times and similar data were obtained. FIG. 3E is a graph showing the Kd value of mAbs 6G11, 8F8, and 12D7 for staining HepG2 tumor cells. Immunofluorescent staining was conducted for HepG2 tumor cells using the mAbs at different concentration. Based on the percent of positive cells and the mAb concentration, the Kd value was calculated by Prism software.
(§3) The 3 mAbs belong to different Ig classes, i.e., 6G11 and 12D7 are IgM, whereas 8F8 is IgG2a. To fairly compare their affinity, mAbs were generated recombinant using their VL and VH and a same human IgG constant region. Fig.3A illustrates the structure of the recombinant mAbs. The mAbs were expressed and purified from 293 cells (FIG 3B). […] The mAb's affinity was also studied by BioLayer Interferometry (BLI). […] The affinity data obtained by ELISA assay and BLI are in the same order, i.e., 6G11>12D7>8F8. Because the purpose of developing the mAbs is to bind hGPC3 molecules on the tumor cell surface, we determined the affinity of the mAbs for hGPC3 on HepG2 cells.

[5] = target: T5, soluble hGPC3 protein (recombinant …); assay: BLI, 1:1 global fit; KD Error 8.68E-11, R^2 0.9939
Procedure: as §2

[6] = target: T5, soluble hGPC3 protein (recombinant …); assay: BLI (Octet Red96), mAb captured on anti-hIgG Fc sensor, GPC3 as analyte, 1:1 fit, 25 C; BLI, soluble hGPC3
Procedure: as §2, §3

[7] = target: T5, soluble hGPC3 protein (recombinant …); assay: ELISA of recombinant mAb on hGPC3, OD450
[8] = target: T5, soluble hGPC3 protein (recombinant …); assay: BLI, 1:1 global fit; KD Error 2.90E-10, R^2 0.9993
Procedure: as §2

[9] = target: T5, soluble hGPC3 protein (recombinant …); assay: BLI, 1:1 global fit; kon Error 8.02E+01, R^2 0.9993
Procedure: as §2

[10] = target: T5, soluble hGPC3 protein (recombinant …); assay: BLI, 1:1 global fit; kdis(1/s); kdis Error 1.83E-06, R^2 0.9993
Procedure: as §2

N2 (30-68) = target: T2, N2 (30-68); assay: ELISA on plate-coated synthetic peptide, anti-human IgG-HRP
Procedure: as §1

N4 (88-126) = target: T3, N4 (88-126); assay: as above
Procedure: as §1

N3 (59-97) = target: T4, N3 (59-97); assay: as above
Procedure: as §1

[11] = target: T5, soluble hGPC3 protein (recombinant …); assay: BLI, 1:1 global fit; KD Error 9.61E-11, R^2 0.9958
Procedure: as §2

[12] = target: T5, soluble hGPC3 protein (recombinant …); assay: BLI, 1:1 global fit; kon Error 2.81E+02, R^2 0.9958
Procedure: as §2

[13] = target: T5, soluble hGPC3 protein (recombinant …); assay: BLI, 1:1 global fit; kdis(1/s); kdis Error 2.89E-06, R^2 0.9958
Procedure: as §2

[14] = target: T7, hGPC3-N fragment (AA1-358) (human, UniProt P51654 25-358); assay: flow cytometry, intracellular staining of 293 cells transfected with hGPC3-N; gate set on untransfected cells
T7 construct: range 1-358; Detected by intracellular staining or western blot of transfected 293/293T cells
Excerpt: FIG. 1A is a table of 22 hGPC3-specific mAbs identified by ELISA assay. Their Ig class, staining of HepG2 cells, and binding of the hGPC3 N- or C-fragment were provided. […] FIG. 1B is a panel of micrographs showing representative immunofluorescent stainings of HepG2 tumor cells by 5 mAbs. FIG. 1C is a diagram of plasmids expressing the N- and C-fragments of hGPC3. FIG. 1D is a panel of graphs showing 293 cells transfected with either hGPC3-N or hGPC3-C plasmid intracellularly stained with indicated mAbs. The gate was set by the parental 293T cells without transfection.

T7 sequence (P51654 25-358 limits assumed, form in doubt): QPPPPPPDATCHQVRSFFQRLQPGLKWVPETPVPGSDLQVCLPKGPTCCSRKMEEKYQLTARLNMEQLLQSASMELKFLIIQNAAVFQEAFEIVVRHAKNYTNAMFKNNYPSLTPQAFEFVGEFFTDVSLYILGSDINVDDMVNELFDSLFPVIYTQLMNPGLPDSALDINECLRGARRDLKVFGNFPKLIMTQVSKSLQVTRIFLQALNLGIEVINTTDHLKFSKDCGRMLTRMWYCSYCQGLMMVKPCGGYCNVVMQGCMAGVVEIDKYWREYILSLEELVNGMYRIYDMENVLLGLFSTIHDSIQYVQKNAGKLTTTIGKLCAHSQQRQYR
T5 sequence (P51654 25-560 limits assumed): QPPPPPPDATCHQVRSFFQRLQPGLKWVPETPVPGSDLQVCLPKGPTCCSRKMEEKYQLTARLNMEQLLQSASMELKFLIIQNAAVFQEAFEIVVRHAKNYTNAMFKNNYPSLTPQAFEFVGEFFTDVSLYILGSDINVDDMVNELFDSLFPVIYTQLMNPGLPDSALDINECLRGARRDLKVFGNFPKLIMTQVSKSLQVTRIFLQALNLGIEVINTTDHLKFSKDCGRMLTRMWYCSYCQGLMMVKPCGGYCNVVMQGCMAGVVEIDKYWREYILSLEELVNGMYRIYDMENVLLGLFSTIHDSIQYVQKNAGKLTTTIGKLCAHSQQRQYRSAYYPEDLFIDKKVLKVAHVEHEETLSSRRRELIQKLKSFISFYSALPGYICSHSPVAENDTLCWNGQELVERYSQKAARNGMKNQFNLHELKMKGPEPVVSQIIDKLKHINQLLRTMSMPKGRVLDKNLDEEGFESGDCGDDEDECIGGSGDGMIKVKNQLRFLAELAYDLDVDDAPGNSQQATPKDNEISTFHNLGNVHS
T6 sequence (P51654 25-554 limits assumed): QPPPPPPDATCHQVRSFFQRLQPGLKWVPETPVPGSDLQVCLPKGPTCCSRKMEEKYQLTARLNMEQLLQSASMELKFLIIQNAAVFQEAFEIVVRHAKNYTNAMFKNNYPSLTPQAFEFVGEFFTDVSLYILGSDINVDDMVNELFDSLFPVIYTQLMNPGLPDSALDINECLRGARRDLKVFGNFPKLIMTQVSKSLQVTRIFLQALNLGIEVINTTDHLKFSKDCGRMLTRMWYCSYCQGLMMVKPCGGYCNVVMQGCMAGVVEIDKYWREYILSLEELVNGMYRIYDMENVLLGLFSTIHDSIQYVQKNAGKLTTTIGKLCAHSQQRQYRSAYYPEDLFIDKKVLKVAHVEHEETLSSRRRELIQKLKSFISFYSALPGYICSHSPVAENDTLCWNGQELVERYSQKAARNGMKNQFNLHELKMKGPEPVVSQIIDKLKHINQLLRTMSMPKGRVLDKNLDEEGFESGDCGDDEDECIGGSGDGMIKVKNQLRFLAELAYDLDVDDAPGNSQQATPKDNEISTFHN

Row | Binder | binding result [1] | EC50 [4] [nM] | Kd [6] [nM] | EC50 [7] | % of cells in the positive gate [14] [%] | further results
1 | recombinant mAb 6G11 (6G11 VL and VH fused to human IgG constant regions) (antibody, V domains shown, Expressed in 293 cells; only the claims assign heavy and light; also called 6G11 mAb) VH: QVQLQQPGSELVRPGASVKLSCKASGYTFTSCWMHWVKQRPGQGLEWIGNIYPGYGNTNYDEKFKNKATLTVDTSSSTAYMQLSGLTSEDSAVYYCTRGSYLYAMDYWGQGTSVTVSS VL: DIQMNQSPSSLSASLGDTITITCHASQNINVWLSWYQQKPGNIPKLLIYKASNLHTGVPSRFSGSGSGTGFTLTISSLQPEDIATYYCQQGQSYPWTFGGGTKLEIKR | binds | 0.095 | 7.4 | 0.0072 µg/mL and 0.047 nM | – | kon [2]: 52400 M⁻¹ s⁻¹; koff [3]: 0.000389 s⁻¹; Kd [5]: 7.43 nM
2 | recombinant mAb 8F8 (8F8 VL and VH fused to human IgG constant regions) (antibody, V domains shown, Expressed in 293 cells; only the claims assign heavy and light; also called 8F8 mAb) VH: EVKLVESGGDLVKPGGSLKLSCAASGFTFSRYGLSWVRQTPEKRLEWVATISGSGSYTYYPDSVKGRFTISRDNAKNNLYLQMSSLRSEDTALYYCVRRGTYGYDNWGQGTTLTVSS VL: not shown | – | 12 | 23 | 0.294 µg/mL and 1.93 nM | – | Kd [8]: 22.9 nM; kon [9]: 8970 M⁻¹ s⁻¹; koff [10]: 0.000206 s⁻¹
3 | recombinant mAb 12D7 (12D7 VL and VH fused to human IgG constant regions) (antibody, V domains shown, Expressed in 293 cells; only the claims assign heavy and light; also called 12D7 mAb) VH: QVQLQQPGSELVRPGASVKLSCKASGYTFTSYWMHWVKQRLGQGLEWIGNIYPGSGSTNYDEKFKSKGTLTVDTSSSTAYMHLSSLTSEDSAVYYCTRGDYDWVFAYWGQGTLVTVSA VL: DIVMTQSQKFMSTSVGDRVSVTCKASQNVGTNVAWYQQKPGQSPKALIYSASYRYSGVPDRFTGSGSGTDFTLTISNVQSEDLAEYFCQQYNSYPLTFGAGTKLELKR | no binding (tested: 10 µg/ml) | 0.1 | 9.8 | 0.125 µg/mL and 0.82 nM | – | binding result (N2 (30-68)): no binding (tested: 10 µg/ml); binding result (N4 (88-126)): no binding (tested: 10 µg/ml); binding result (N3 (59-97)): no binding (tested: 10 µg/ml); Kd [11]: 9.76 nM; kon [12]: 41500 M⁻¹ s⁻¹; koff [13]: 0.000405 s⁻¹; EC50 (read off the curve) [7]: ~0.1 µg/mL
4 | mAb 6G11 (mouse hybridoma antibody) (antibody, V domains shown, Mouse IgM with kappa light chain, from hybridoma; claim 21 names 5 and 7 as the amino acid entries) VH: QVQLQQPGSELVRPGASVKLSCKASGYTFTSCWMHWVKQRPGQGLEWIGNIYPGYGNTNYDEKFKNKATLTVDTSSSTAYMQLSGLTSEDSAVYYCTRGSYLYAMDYWGQGTSVTVSS VL: DIQMNQSPSSLSASLGDTITITCHASQNINVWLSWYQQKPGNIPKLLIYKASNLHTGVPSRFSGSGSGTGFTLTISSLQPEDIATYYCQQGQSYPWTFGGGTKLEIKR | – | – | – | – | 44.3 | –
5 | mAb 8F8 (mouse hybridoma antibody) (antibody, V domains shown, Mouse IgG2a with kappa light chain, from hybridoma) VH: EVKLVESGGDLVKPGGSLKLSCAASGFTFSRYGLSWVRQTPEKRLEWVATISGSGSYTYYPDSVKGRFTISRDNAKNNLYLQMSSLRSEDTALYYCVRRGTYGYDNWGQGTTLTVSS VL: not shown | – | – | – | – | 0.31 | –
6 | mAb 12D7 (mouse hybridoma antibody) (antibody, V domains shown, Mouse IgM with kappa light chain, from hybridoma) VH: QVQLQQPGSELVRPGASVKLSCKASGYTFTSYWMHWVKQRLGQGLEWIGNIYPGSGSTNYDEKFKSKGTLTVDTSSSTAYMHLSSLTSEDSAVYYCTRGDYDWVFAYWGQGTLVTVSA VL: DIVMTQSQKFMSTSVGDRVSVTCKASQNVGTNVAWYQQKPGQSPKALIYSASYRYSGVPDRFTGSGSGTDFTLTISNVQSEDLAEYFCQQYNSYPLTFGAGTKLELKR | – | – | – | – | 43.2 | –

Reference: patent US20220288124A1 (AUGUSTA UNIVERSITY RESEARCH INSTITUTE, published 2022)
